The series deals with MS2 coat protein. The series is described as follows: apparent KD of MS2 coat protein; designed switch direction (-1 OFF switch, 1 ON switch): -1; higher = weaker reporter binding. The method, boiled down:
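Apparent KD, taken as the median over clusters for each design, was obtained by curve-fitting normalised cluster fluorescence. Designed RNA switches had been transcribed on Illumina chips by stalled E. coli RNA polymerase and titrated with SNAP-549-labelled MS2 coat protein, doubling from 0.7 or 1.5 nM to 3 µM.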

[1] abbreviates: Eterna round: R95, input ligand: microRNA oligo, concentration not stated.
Setting [2] is: input ligand: microRNA oligo, concentration not stated.

The results in this text go back to the supplement of paper PMC9170038.

Turning to “GUAAAGUGAGGAUAUGGUAAAUUAAUUAUUAAUUAAUUAAUCCAGAAGGCACAUGAGGAUCACCCAUGUAAUUG [Mat - Exclusion 4 - D86] (puzzle: Exclusion 4)”, the “apparent KD of MS2 coat protein” value under setting [1] was 22.2 nM.

On to “GUAACAUGCUGGUGAUCAUACAUGAGGAUCACCCAUGUAACAAGCUUUUUGUUCGUCUUAAUUUAAUUGAUUACUAG [Stov1/8-B2] (Eterna round: R97, puzzle: Sensor, turn-off variant 1)”, for which the “apparent KD of MS2 coat protein” value by setting is: (input ligand: FMN 200 uM) 202 nM; (input ligand: none) 196 nM.

Take “GUAAUCUUAGGAUAUUUACGGGUCGACAUGAGGAUCACCCAUGUACCCACGUAGGCCUGAGAAGAAGGAAGAUGAC [EX5 C.24] (Eterna round: R97, puzzle: Exclusion 5)”: the “apparent KD of MS2 coat protein” value came out at 22.1 nM (input ligand: FMN 200 uM) and 14.5 nM (input ligand: none).

For the sequence “GUACUACGAGGAUAUAUAUAAUGGGAAGCCCAGGCCAUUGCACAUGAGGAUCACCCAUGUAGAAGGCGUGGUCA [Eternabot (L2) Solution 28] (Eterna round: R97, puzzle: Exclusion 2)”, the “apparent KD of MS2 coat protein” value (input ligand: FMN 200 uM) turned out to be 40.3 nM and the “apparent KD of MS2 coat protein” value (input ligand: none) worked out at 16.7 nM.

“GUACUGAGGCUUUGCUUUAGUCGUACAUGAGGAUCACCCAUGUAGGAUAUGGUAGGCUUUGCUUACCAGAAGGACAGAGUGAUC [JL EXNG3 1.22] (Eterna round: R96, puzzle: Exclusion NG 3)”: the “apparent KD of MS2 coat protein” value under setting [2] worked out at 188 nM.

Consider “GUAGAGUAAGGAUAUCGUGAAUAGGAUAGAAUGGUUAGAAACGAGAAGGUACAUGAGGAUCACCCAUGUAAUGU [Excluse me!!!! 17 - Jieux - Exclusion 4] (puzzle: Exclusion 4)”, for which the “apparent KD of MS2 coat protein” value under setting [1] was determined as 20.8 nM.

For the sequence “GUAGAGUAAGGAUAUGGUGAAUAGGAUAGAAUGGUUAGAAACUAGAAGGUACAUGAGGAUCACCCAUGUAAUGU [Excluse me!!!! 23 - Jieux - Exclusion 4] (puzzle: Exclusion 4)”, the “apparent KD of MS2 coat protein” value under setting [1] was found to be 20.8 nM.

Turning to “GUAGAGUCAGGAUAUACAAAACCAUCGAAAGAUGGAUCCAUACAUGAGGAUCACCCAUGUAGAAGGGACUCUAC [Eli x2 4.17] (Eterna round: R97, puzzle: Exclusion 2)”, the “apparent KD of MS2 coat protein” value reads like this: (input ligand: FMN 200 uM) 21 nM; (input ligand: none) 17.1 nM.

“GUAGAGUCAGGAUAUACAAGAUCGAAAGAUCAAAGAUCCAUACAUGAGGAUCACCCAUGUAGAAGGGACUCUAC [Eli x2 4.10] (Eterna round: R97, puzzle: Exclusion 2)”: the “apparent KD of MS2 coat protein” value runs as follows: (input ligand: FMN 200 uM) 73.5 nM; (input ligand: none) 22.4 nM.

On to “GUAGAGUCAGGAUAUACAAGAUCGAAAGAUCGGCGAUCCAUACAUGAGGAUCACCCAUGUAGAAGGGACUCUAC [Eli x2 4.003] (Eterna round: R97, puzzle: Exclusion 2)”, for which the “apparent KD of MS2 coat protein” value came to 560 nM (input ligand: FMN 200 uM) and 33.4 nM (input ligand: none).

Take “GUAGAGUCAGGAUAUACGAGAUCGAUAGAUCGGCGAUCCCUACAUGAGGAUCACCCAUGUAGAAGGGACUCUAC [Mat - Exclusion 2 - Eli Mod - D12] (Eterna round: R97, puzzle: Exclusion 2)”: the “apparent KD of MS2 coat protein” value is, setting by setting: (input ligand: FMN 200 uM) 37.6 nM; (input ligand: none) 15.6 nM.

Consider “GUAGAGUGAGGAUAUACGAGAUCGAUAGAUCGGCGAUCCAAACAUGAGGAUCACCCAUGUAGAAGGCACUCUAC [Mat - Exclusion 2 - Eli Mod - D6] (Eterna round: R97, puzzle: Exclusion 2)”, for which the “apparent KD of MS2 coat protein” value by setting is: (input ligand: FMN 200 uM) 455 nM; (input ligand: none) 90.4 nM.

In the case of “GUAGGUUAAGUAAGGAUAUACCUCUGGAAACAGAGGUAGAAGGUACAUGAGGAUCACCCAUGUUUCUCUUUUGC [Mod of Eli 6 - Jieux - Brourd's mod of Exclusion 4] (Eterna round: R97, puzzle: Brourd's mod of Exclusion 4)”, the “apparent KD of MS2 coat protein” value came to 21.8 nM (input ligand: FMN 200 uM) and 18.7 nM (input ligand: none).

On to “GUAUAACAUGUAGGAUAUGCGUGGCGAAGCUAUGCAGAAGGACAUGAGGAUCACCCAUGUAAUAGCGUCUGCGUACAGAUGCAA [Mat - Exclusion NG 1 - Mod of JL - D90] (Eterna round: R96, puzzle: Exclusion NG 1)”, for which the “apparent KD of MS2 coat protein” value reads like this: (input ligand: FMN 200 uM) 134 nM; under setting [2], 27.9 nM; (input ligand: none) 40.8 nM.

With “GUAUAACUACACGGGCUCAACAUGAGGAUCACCCAUGUCUUAUACGCAAGCUUUUUGCUUGUCUUAUCUGUCCGUGA [Tibimaesan] (puzzle: Sensor v3, turn-off variant 1)”, the “apparent KD of MS2 coat protein” value was 12.6 nM (Eterna round: R95, input ligand: FMN 200 uM); 11.9 nM under setting [1]; 12.3 nM (Eterna round: R95, input ligand: none).

On to “GUAUGAGGAGGAUAUACGUAUCCUUGACCCUGCUAGCGCGGACAUGAGGAUCACCCAUGUAGAAGGUUUCGACA [Eternabot (L1) Solution 46] (Eterna round: R97, puzzle: Exclusion 2)”, for which the “apparent KD of MS2 coat protein” value reads like this: (input ligand: FMN 200 uM) 28.8 nM; (input ligand: none) 38.6 nM.

As for “GUAUGGAGAGUGAGGAUAUUUCCUGAGUGAUCAGCGAAGAAGGUACAUGAGGAUCACCCAUGUAGGUGGACUAA [Eternabot (L1) Solution 14] (Eterna round: R97, puzzle: Brourd's mod of Exclusion 4)”, the “apparent KD of MS2 coat protein” value reads like this: (input ligand: FMN 200 uM) 82.4 nM; (input ligand: none) 70.5 nM.

Turning to “GUAUGUGACGAGGAUAUCACCUUGUUACUUAGAUGAGAAGGCGUCACAUGAGGAUCACCCAUGUGAUGAAAAGA [EX6 A.14] (Eterna round: R97, puzzle: Exclusion 6)”, the “apparent KD of MS2 coat protein” value is, setting by setting: (input ligand: FMN 200 uM) 27.4 nM; (input ligand: none) 21.4 nM.

As to “GUAUGUGCGAGAGGAUAUCGUGUACAAAGUACACGAGAAGGCUUCACAUGAGGAUCACCCAUGUACCGAGGUGAAACACCUUGA [Omei Exc(NG)1 Bv8] (Eterna round: R96, puzzle: Exclusion NG 1)”, the “apparent KD of MS2 coat protein” value was found to be 934 nM (input ligand: FMN 200 uM), 173 nM under setting [2] and 270 nM (input ligand: none).

For the sequence “GUCACAUGGACAUAGGAUCACAUGAGGAUCACCCAUGUGACUAACAAGCUUUUUGCUCGUCUUAUGUCUAUGUGAAU [Stov1/16-A2] (Eterna round: R97, puzzle: Sensor, turn-off variant 1)”, the “apparent KD of MS2 coat protein” value (input ligand: FMN 200 uM) worked out at 14 nM and the “apparent KD of MS2 coat protein” value (input ligand: none) stood at 14.3 nM.

“GUCACAUGGGUAUAGGAUCACAUGAGGAUCACCCAUGUGACUAACAAGCUUUUUGCUCGUCUUAUGUCUAUGUGAAU [Stov1/18-A2] (Eterna round: R97, puzzle: Sensor, turn-off variant 1)”: the “apparent KD of MS2 coat protein” value amounted to 26.2 nM (input ligand: FMN 200 uM) and 32.4 nM (input ligand: none).

Turning to “GUCAGACGAGGAUAUAGAUUUGAUAACAUGAGGAUCACCCAUGUGAUCGAUAGAUCAGAUUUAGAAGGUGUCUGAC [E5/8-B3] (Eterna round: R97, puzzle: Exclusion 5)”, the “apparent KD of MS2 coat protein” value reads like this: (input ligand: FMN 200 uM) 403 nM; (input ligand: none) 331 nM.

Take “GUCAGCUCGUCAGGAUAUACAUGCGUGCUUCGGCACGAAUUUAAGAUCACAUGAGGAUCACCCAUGUAGAAGGGACGAGCUGAC [ENG2/3-B1] (Eterna round: R96, puzzle: Exclusion NG 2)”: the “apparent KD of MS2 coat protein” value (input ligand: FMN 200 uM) came to 741 nM, the “apparent KD of MS2 coat protein” value under setting [2] turned out to be 515 nM and the “apparent KD of MS2 coat protein” value (input ligand: none) came out at 534 nM.

Turning to “GUCAGCUCGUCAGGAUAUACAUGCGUGCUUCGGCACGUAUGAUAGAUCACAUGAGGAUCACCCAUGUAGAAGGGACGAGCUGAU [ENG2/4-B2] (Eterna round: R96, puzzle: Exclusion NG 2)”, the “apparent KD of MS2 coat protein” value is, setting by setting: (input ligand: FMN 200 uM) 16.6 nM; under setting [2], 10 nM; (input ligand: none) 14.4 nM.

As to “GUCAGCUCGUGAGGAUAUACAUGAGGAUCACCCAUGUGAUCAAUAGCAGCUUCGGCUGCAUACAUGUAGAAGGCACGAGCUGAU [ENG2/6-A2] (Eterna round: R96, puzzle: Exclusion NG 2)”, under setting [2], the “apparent KD of MS2 coat protein” value worked out at 27.5 nM.

For “GUCAGCUCGUGAGGAUAUACAUGCGUGCUUCGGCACGAAUUUAAGAUCACAUGAGGAUCACCCAUGUAGAAGGUACGAGCUGAC [ENG2/3-C1] (Eterna round: R96, puzzle: Exclusion NG 2)”, the “apparent KD of MS2 coat protein” value is, setting by setting: (input ligand: FMN 200 uM) 632 nM; under setting [2], 646 nM; (input ligand: none) 387 nM.

In the case of “GUCAGCUCGUGAGGAUAUGAACAUGAGGAUCACCCAUGUAAGAUCAAGCUGCUUCGGCAGCAAGUUCAGAAGGUACGAGCUGAU [ENG2/10-C2] (Eterna round: R96, puzzle: Exclusion NG 2)”, the “apparent KD of MS2 coat protein” value amounted to 243 nM (input ligand: FMN 200 uM), 93.3 nM under setting [2] and 122 nM (input ligand: none).

For “GUCAGCUCGUGAGGAUAUGCACAUGAGGAUCACCCAUGUAAGAUCAAGCUGCUUCGGCAGCAAGUGCAGAAGGCACGAGCUGAU [ENG2/9-A3] (Eterna round: R96, puzzle: Exclusion NG 2)”, the “apparent KD of MS2 coat protein” value (input ligand: FMN 200 uM) stood at 148 nM, the “apparent KD of MS2 coat protein” value under setting [2] came out at 179 nM and the “apparent KD of MS2 coat protein” value (input ligand: none) stood at 210 nM.

Consider “GUCAUACAUGAGGAUCACCCAUGUAAGGAUAUGCUAGCGGUCGGCUGACUGACUGCUAGCAGAAGGUACAUGAU (puzzle: Exclusion 1)”, for which, under setting [1], the “apparent KD of MS2 coat protein” value was 61.5 nM.

Take “GUCAUGUCAGGAUAUGCUUAUGAUGGGUGCUCAGACAUGAUGCAGAAGGGACAUGAGGAUCACCCAUGUACUGA [EX4 #15] (Eterna round: R97, puzzle: Exclusion 4)”: the “apparent KD of MS2 coat protein” value by setting is: (input ligand: FMN 200 uM) 84.8 nM; (input ligand: none) 68.3 nM.

Turning to “GUCCUACAUGAGGAUCACCCAUGUAAGGAUAUGCUAGCGGUCGGAAGACUGACUGCUAGCAGAAGGUACAUGAU [Mat - Mod of JL D79] (puzzle: Exclusion 1)”, under setting [1], the “apparent KD of MS2 coat protein” value turned out to be 13.9 nM.
